Data from patent US20240301049A1 (Ablynx, published 2024).

T1: cyno IL-6 (cynomolgus monkey, UniProt P79341 28-212, limits assumed)
T1 sequence (looked up): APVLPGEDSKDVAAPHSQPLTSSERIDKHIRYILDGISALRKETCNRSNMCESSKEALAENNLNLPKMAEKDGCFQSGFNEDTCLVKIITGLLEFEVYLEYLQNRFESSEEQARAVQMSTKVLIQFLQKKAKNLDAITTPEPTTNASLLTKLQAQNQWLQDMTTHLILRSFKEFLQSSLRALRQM


How the values were obtained:
Assay in all cases: cell-based or functional assay
human TNF-α = human TNF-α (human, UniProt P01375 77-233)
human IL-6 = human IL-6 (human, UniProt P05231 30-212)
cyno IL-6 = molecular target: T1, cyno IL-6
cyno TNF-α = cyno TNF-α (cynomolgus monkey, UniProt P79337 77-233)
Chain of cyno TNF-α (P79337 77-233 limits assumed): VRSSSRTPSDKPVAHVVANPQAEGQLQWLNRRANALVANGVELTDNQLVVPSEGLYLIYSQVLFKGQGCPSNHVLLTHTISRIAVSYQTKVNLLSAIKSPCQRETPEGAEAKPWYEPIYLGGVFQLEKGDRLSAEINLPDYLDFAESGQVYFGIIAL

Chain of human TNF-α (P01375 77-233 limits assumed): as the sequence (P79337 77-233 limits assumed) above, with V37L, T44R, N72T, L138R counted along it

Row | Binder | IC50 hTNF-α Nfkb assay (human TNF-α) | IC50 hIL-6 TF1 proliferation assay (human IL-6) | Ratio IC50 cyno IL-6/hIL-6 (cyno IL-6) | Ratio IC50 cyno TNFα/hTNFα (cyno TNF-α)
1 | F027200167 (bispecific antibody) EVQLVESGGGVVQPGGSLRLSCAASGIIFSINAMGWYRQAPGKQRELVADIFPFGSTEYADSVKGRFTISRDNAKNTVYLQMNSLRPEDTALYYCHSYDPRGDDYWGQGTLVTVSSGGGGSGGGSEVQLVESGGGVVQPGGSLRLSCAASGRTFSSYVMGWFRQAPGKEREFVSTINWAGSRGYYADSVKGRFTISRDNAKNTVYLQMNSLRPEDTALYYCAASAGGFLVPRVGQGYDYWGQGTLVTVSSGGGGSGGGSEVQLVESGGGVVQPGGSLRLSCAASGFTFRSFGMSWVRQAPGKGPEWVSSISGSGSDTLYADSVKGRFTISRDNSKNTLYLQMNSLRPEDTALYYCTIGGSLSRSSQGTLVTVSSGGGGSGGGSEVQLVESGGGVVQPGGSLRLSCTASGFTFSTADMGWFRQAPGKGREFVARISGIDGTTYYDEPVKGRFTISRDNSKNTVYLQMNSLRPEDTALYYCRSPRYADQWSAYDYWGQGTLVKVSS | 0.171 nM | 1.27 nM | 2.5 ratio | 3.1 ratio
2 | F027200154 (bispecific antibody) EVQLVESGGGVVQPGGSLRLSCTASGFTFSTADMGWFRQAPGKGREFVARISGIDGTTYYDEPVKGRFTISRDNSKNTVYLQMNSLRPEDTALYYCRSPRYADQWSAYDYWGQGTLVKVSSGGGGSGGGSEVQLVESGGGVVQPGGSLRLSCAASGFTFRSFGMSWVRQAPGKGPEWVSSISGSGSDTLYADSVKGRFTISRDNSKNTLYLQMNSLRPEDTALYYCTIGGSLSRSSQGTLVTVSSGGGGSGGGSEVQLVESGGGVVQPGGSLRLSCAASGIIFSINAMGWYRQAPGKQRELVADIFPFGSTEYADSVKGRFTISRDNAKNTVYLQMNSLRPEDTALYYCHSYDPRGDDYWGQGTLVTVSSGGGGSGGGSDVQLVESGGGVVQPGGSLRLSCAASGRTFSNYAMAWFRQAPGKEREFVAVISYAGGRTYYADSVKGRFTISRDNAKNTVYLQMNSLRPEDTALYYCAAVDSPLIATHPRGYDYWGQGTLVTVSS | 0.164 nM | 0.415 nM | 2.1 ratio | 2.8 ratio
3 | F027200168 (bispecific antibody) EVQLVESGGGVVQPGGSLRLSCAASGIIFSINAMGWYRQAPGKQRELVADIFPFGSTEYADSVKGRFTISRDNAKNTVYLQMNSLRPEDTALYYCHSYDPRGDDYWGQGTLVTVSSGGGGSGGGSEVQLVESGGGVVQPGGSLRLSCAASGFTFRSFGMSWVRQAPGKGPEWVSSISGSGSDTLYADSVKGRFTISRDNSKNTLYLQMNSLRPEDTALYYCTIGGSLSRSSQGTLVTVSSGGGGSGGGSEVQLVESGGGVVQPGGSLRLSCAASGRTFSSYVMGWFRQAPGKEREFVSTINWAGSRGYYADSVKGRFTISRDNAKNTVYLQMNSLRPEDTALYYCAASAGGFLVPRVGQGYDYWGQGTLVTVSSGGGGSGGGSEVQLVESGGGVVQPGGSLRLSCTASGFTFSTADMGWFRQAPGKGREFVARISGIDGTTYYDEPVKGRFTISRDNSKNTVYLQMNSLRPEDTALYYCRSPRYADQWSAYDYWGQGTLVKVSS | 0.14 nM | 0.966 nM | 1.6 ratio | 3.3 ratio
4 | F027200153 (bispecific antibody) EVQLVESGGGVVQPGGSLRLSCTASGFTFSTADMGWFRQAPGKGREFVARISGIDGTTYYDEPVKGRFTISRDNSKNTVYLQMNSLRPEDTALYYCRSPRYADQWSAYDYWGQGTLVKVSSGGGGSGGGSEVQLVESGGGVVQPGGSLRLSCAASGFTFRSFGMSWVRQAPGKGPEWVSSISGSGSDTLYADSVKGRFTISRDNSKNTLYLQMNSLRPEDTALYYCTIGGSLSRSSQGTLVTVSSGGGGSGGGSEVQLVESGGGVVQPGGSLRLSCAASGIIFSINAMGWYRQAPGKQRELVADIFPFGSTEYADSVKGRFTISRDNAKNTVYLQMNSLRPEDTALYYCHSYDPRGDDYWGQGTLVTVSSGGGGSGGGSEVQLVESGGGVVQPGGSLRLSCAASGRTFSSYVMGWFRQAPGKEREFVSTINWAGSRGYYADSVKGRFTISRDNAKNTVYLQMNSLRPEDTALYYCAASAGGFLVPRVGQGYDYWGQGTLVTVSS | 0.139 nM | 1.03 nM | 2.5 ratio | 2.7 ratio

The next lines start with the values.

Row | IC50 hTNF-α Nfkb assay (human TNF-α) | IC50 hIL-6 TF1 proliferation assay (human IL-6) | Ratio IC50 cyno IL-6/hIL-6 (cyno IL-6) | Ratio IC50 cyno TNFα/hTNFα (cyno TNF-α) | Binder
5 | 0.0852 nM | 0.303 nM | 1.2 ratio | 2.2 ratio | F027201026 (bispecific antibody) EVQLVESGGGVVQPGGSLRLSCTASGFTFSTADMGWFRQAPGKGREFVARISGIDGTTYYDEPVKGRFTISRDNSKNTVYLQMNSLRPEDTALYYCRSPRYADQWSAYDYWGQGTLVKVSSGGGGSGGGSEVQLVESGGGVVQPGGSLRLSCAASGFTFRSFGMSWVRQAPGKGPEWVSSISGSGSDTLYADSVKGRFTISRDNSKNTLYLQMNSLRPEDTALYYCTIGGSLSRSSQGTLVTVSSGGGGSGGGSDVQLVESGGGVVQPGGSLRLSCAASGRTFSNYAMAWFRQAPGKEREFVAVISYAGGRTYYADSVKGRFTISRDNAKNTVYLQMNSLRPEDTALYYCAAVDSPLIATHPRGYDYWGQGTLVTVSSGGGGSGGGSEVQLVESGGGVVQPGGSLRLSCAASGIIFSINAMGWYRQAPGKQRELVADIFPFGSTEYADSVKGRFTISRDNAKNTVYLQMNSLRPEDTALYYCHSYDPRGDDYWGQGTLVTVSS
6 | – | 0.127 nM | 38.3 ratio | – | F027200989 (bispecific antibody) EVQLVESGGGVVQPGGSLRLSCTASGFTFSTADMGWFRQAPGKGREFVARISGIDGTTYYDEPVKGRFTISRDNSKNTVYLQMNSLRPEDTALYYCRSPRYADQWSAYDYWGQGTLVKVSSGGGGSGGGSEVQLVESGGGVVQPGGSLRLSCAASGFSLDYYGVGWFRQAPGKEREGVSCISSSEGDTYYADSVKGRFTISRDNAKNTVYLQMNSLRPEDTALYYCATDLSDYGVCSRWPSPYDYWGQGTLVKVSSGGGGSGGGSEVQLVESGGGVVQPGGSLRLSCAASGFTFRSFGMSWVRQAPGKGPEWVSSISGSGSDTLYADSVKGRFTISRDNSKNTLYLQMNSLRPEDTALYYCTIGGSLSRSSQGTLVTVSSGGGGSGGGSEVQLVESGGGVVQPGGSLRLSCAASGFTLAYYAIGWFRQAPGKEREGVSCISGSVGTTYYADSVKGRFTISRDNAKNTVYLQMNSLRPEDTALYYCVRSSWFDCGVQGRDLGNEYDYRGQGTLVTVSS
7 | 0.239 nM | 0.302 nM | 2 ratio | 2.7 ratio | F027200215 (bispecific antibody) EVQLVESGGGVVQPGGSLRLSCAASGIIFSINAMGWYRQAPGKQRELVADIFPFGSTEYADSVKGRFTISRDNAKNTVYLQMNSLRPEDTALYYCHSYDPRGDDYWGQGTLVTVSSGGGGSGGGSDVQLVESGGGVVQPGGSLRLSCAASGRTFSNYAMAWFRQAPGKEREFVAVISYAGGRTYYADSVKGRFTISRDNAKNTVYLQMNSLRPEDTALYYCAAVDSPLIATHPRGYDYWGQGTLVTVSSGGGGSGGGSEVQLVESGGGVVQPGGSLRLSCAASGFTFRSFGMSWVRQAPGKGPEWVSSISGSGSDTLYADSVKGRFTISRDNSKNTLYLQMNSLRPEDTALYYCTIGGSLSRSSQGTLVTVSSGGGGSGGGSEVQLVESGGGVVQPGGSLRLSCTASGFTFSTADMGWFRQAPGKGREFVARISGIDGTTYYDEPVKGRFTISRDNSKNTVYLQMNSLRPEDTALYYCRSPRYADQWSAYDYWGQGTLVKVSS
8 | 0.061 nM | 0.293 nM | 1.1 ratio | 3.1 ratio | F027201028 (bispecific antibody) DVQLVESGGGVVQPGGSLRLSCAASGRTFSNYAMAWFRQAPGKEREFVAVISYAGGRTYYADSVKGRFTISRDNAKNTVYLQMNSLRPEDTALYYCAAVDSPLIATHPRGYDYWGQGTLVTVSSGGGGSGGGSEVQLVESGGGVVQPGGSLRLSCAASGIIFSINAMGWYRQAPGKQRELVADIFPFGSTEYADSVKGRFTISRDNAKNTVYLQMNSLRPEDTALYYCHSYDPRGDDYWGQGTLVTVSSGGGGSGGGSEVQLVESGGGVVQPGGSLRLSCAASGFTFRSFGMSWVRQAPGKGPEWVSSISGSGSDTLYADSVKGRFTISRDNSKNTLYLQMNSLRPEDTALYYCTIGGSLSRSSQGTLVTVSSGGGGSGGGSEVQLVESGGGVVQPGGSLRLSCTASGFTFSTADMGWFRQAPGKGREFVARISGIDGTTYYDEPVKGRFTISRDNSKNTVYLQMNSLRPEDTALYYCRSPRYADQWSAYDYWGQGTLVKVSS
9 | 0.0603 nM | 0.317 nM | 0.6 ratio | 2.5 ratio | F027201027 (bispecific antibody) DVQLVESGGGVVQPGGSLRLSCAASGRTFSNYAMAWFRQAPGKEREFVAVISYAGGRTYYADSVKGRFTISRDNAKNTVYLQMNSLRPEDTALYYCAAVDSPLIATHPRGYDYWGQGTLVTVSSGGGGSGGGSEVQLVESGGGVVQPGGSLRLSCAASGFTFRSFGMSWVRQAPGKGPEWVSSISGSGSDTLYADSVKGRFTISRDNSKNTLYLQMNSLRPEDTALYYCTIGGSLSRSSQGTLVTVSSGGGGSGGGSEVQLVESGGGVVQPGGSLRLSCAASGIIFSINAMGWYRQAPGKQRELVADIFPFGSTEYADSVKGRFTISRDNAKNTVYLQMNSLRPEDTALYYCHSYDPRGDDYWGQGTLVTVSSGGGGSGGGSEVQLVESGGGVVQPGGSLRLSCTASGFTFSTADMGWFRQAPGKGREFVARISGIDGTTYYDEPVKGRFTISRDNSKNTVYLQMNSLRPEDTALYYCRSPRYADQWSAYDYWGQGTLVKVSS
10 | – | 0.143 nM | 29.4 ratio | – | F027200987 (bispecific antibody) EVQLVESGGGVVQPGGSLRLSCAASGFSLDYYGVGWFRQAPGKEREGVSCISSSEGDTYYADSVKGRFTISRDNAKNTVYLQMNSLRPEDTALYYCATDLSDYGVCSRWPSPYDYWGQGTLVKVSSGGGGSGGGSEVQLVESGGGVVQPGGSLRLSCAASGFTFRSFGMSWVRQAPGKGPEWVSSISGSGSDTLYADSVKGRFTISRDNSKNTLYLQMNSLRPEDTALYYCTIGGSLSRSSQGTLVTVSSGGGGSGGGSEVQLVESGGGVVQPGGSLRLSCAASGFTLAYYAIGWFRQAPGKEREGVSCISGSVGTTYYADSVKGRFTISRDNAKNTVYLQMNSLRPEDTALYYCVRSSWFDCGVQGRDLGNEYDYRGQGTLVTVSSGGGGSGGGSEVQLVESGGGVVQPGGSLRLSCTASGFTFSTADMGWFRQAPGKGREFVARISGIDGTTYYDEPVKGRFTISRDNSKNTVYLQMNSLRPEDTALYYCRSPRYADQWSAYDYWGQGTLVKVSS
